Source: PMC2727048

T1: HBV core protein of virion-derived mature capsids (Mat-C) (Hepatitis B virus), P03146
T1 chain: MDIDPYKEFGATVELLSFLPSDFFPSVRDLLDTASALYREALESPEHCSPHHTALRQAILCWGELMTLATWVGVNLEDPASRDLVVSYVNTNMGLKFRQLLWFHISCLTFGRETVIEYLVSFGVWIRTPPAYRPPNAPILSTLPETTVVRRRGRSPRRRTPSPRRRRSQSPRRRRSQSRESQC

T2: HBV core protein of E. coli-derived "recombinant" capsids (rC) (Hepatitis B virus), P03146
T2 chain: T1 chain

B1: HBV core protein of virion-derived mature capsids (Mat-C), P03146 1-183 (natural protein)
chain: T1 chain
B2: HBV core protein of E. coli-derived "recombinant" capsids (rC), P03146 1-183 (natural protein)
chain: T1 chain

Columns and labels:
Settings in all cases: remark: other sources report otherwise
[1] = biological target: T1, HBV core protein of virion-derived …; assay: Nycodenz gradient ultracentrifugation; 50 ng P-Mat-C after transport reaction with 4×10^6 digitonin-permeabilized HuH-7 cells and rabbit reticulocyte lysate, lysate of the cells on the gradient; controls with WGA, cells treated with RNase A
[2] = biological target: T1, HBV core protein of virion-derived …; assay: Nycodenz gradient ultracentrifugation
[3] = biological target: T2, HBV core protein of E. coli-derived …; assay: Nycodenz gradient ultracentrifugation

| Binder | percent of 32P core proteins in the particle fractions [1] [%] | percent of the radioactivity in the four major (capsid) fractions [2] [%] | percent of the radioactivity in the three major (capsid) fractions [3] [%] |
| --- | --- | --- | --- |
| B1 | 99 | 98 | – |
| B2 | – | – | 91 |
